Experiments:
[1] = molecular target: cynomolgus formyl peptide receptor 1 (cynomolgus monkey); assay: FMAT competition binding on cells
[2] = molecular target: cynomolgus formyl peptide receptor 1 (cynomolgus monkey)

| Binder | IC50 [1] [nM] | IC50, inhibition of fMLFF-induced calcium release, cynomolgus FPR1 HEK cells [2] [nM] |
| --- | --- | --- |
| Fpro0165 IgG (antibody, V domains shown) VH: EVQLVESGGGLVKPGGSLRLSCAASGFTFSNAWMNWVRQAPGKGLEWVGRVKSKTDGGAADYAAPVKGRFTISRDDSKNTLYLQMNSLKTEDTAVYYCTTDQLGYDFWNGYYTDTLYYYFGMDVWGPGTTVTVSS VL: DIVMTQSPLSLPVTPGEPASISCRSSQPLLAMDGHNYLDWYLQKPGQSPQVLIYQSKWRASGVPDRFSGSGSGTDFTLKISRVEAEDVGVYYCMQALQTPLTFGGGTKVEIK | 20 | 12 |
| Fpro0067 IgG (antibody, V domains shown) VH: EVQLVESGGGLVKPGGSLRLSCAASGFTFSNAWMNWVRQAPGKGLEWVGRIKSKTDGGAADYAAPVKGRFTISRDDSKNTLYLQMNSLKTEDTAVYYCTTDQLGYDFWSGYYTDTLYYYFGMDVWGPGTTVTVSS VL: DIVMTQSPLSLPVTPGEPASISCRSSQPLLAMDGHNYLDWYLQKPGQSPQVLIYQSKWRASGVPDRFSGSGSGTDFTLKISRVEAEDVGVYYCMQALQTPLTFGGGTKVEIK | 13 | – |
| Fpro0084 IgG (antibody, V domains shown) VH: EVQLVESGGGLVKPGGSLRLSCAASGFTFSNAWMNWVRQAPGKGLEWVGRIKSKTDGGAADYAAPVKGRFTISRDDSKNTLYLQMNSLKTEDTAVYYCTTDQLGYDFWSGYYTDTLYYYFGMDVWGPGTTVTVSS VL: DIVMTQSPLSLPVTPGEPASISCRSSQQLQAYDGHNYLDWYLQKPGQSPQVLIYLGSNRASGVPDRFSGSGSGTDFTLKISRVEAEDVGVYYCMQALQTPLTFGGGTKVEIK | 13 | – |
| Fpro0025 IgG (antibody, V domains shown) VH: EVQLVESGGGLVKPGGSLRLSCAASGFTFSNAWMNWVRQAPGKGLEWVGRIKSKTDGGAADYAAPVKGRFTISRDDSKNTLYLQMNSLKTEDTAVYYCTTDQLGYDFWSGYYTDTLYYYFGMDVWGPGTTVTVSS VL: DIVMTQSPLSLPVTPGEPASISCRSSQPLLAMDGHNYLDWYLQKPGQSPQVLIYLGSNRASGVPDRFSGSGSGTDFTLKISRVEAEDVGVYYCMQALQTPLTFGGGTKVEIK | 33 | – |

Reference: article PMC4622665
